T1: recombinant HMG1 (Homo sapiens, UniProt P09429)
T1 construct: made in house; host or cells: E. coli
T1 sequence (P09429 1-215): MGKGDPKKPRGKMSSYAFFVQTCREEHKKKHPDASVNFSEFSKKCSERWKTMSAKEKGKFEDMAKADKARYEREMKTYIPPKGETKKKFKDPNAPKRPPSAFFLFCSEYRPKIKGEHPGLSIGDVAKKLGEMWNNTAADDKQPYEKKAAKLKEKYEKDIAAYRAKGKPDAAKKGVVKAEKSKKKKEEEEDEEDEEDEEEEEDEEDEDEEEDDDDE

B1: G2: human anti-HMG1 IgG1 from Fab phage display library; VL/VH aa SEQ ID NO: 30/32 (antibody, listed as Homo sapiens, V domains shown)
VH: EVQLLESGGGLVQPGGSLRLSCAASGFTFSWYKMQWVRQAPGKGLEWVSGISPSGGSTAYADSVKGRFTISRDNSKNTLYLQMNSLRAEDTAVYYCAKMGLFNTGNSYVDYWGQGTLVTVSS
VL: AQSELTQPPSVSEAPGQRVTISCSGSTSNIGNNAVIWYQQLPGKAPKLLIYYDDLLPSGVSDRFSGSKSGTSGSLAISGLQSEDEADYYCASWDDNLNGPLFGGGTKLTVL
B2: S16: human anti-HMG1 antibody, ATCC PTA-6259; VL/VH aa SEQ ID NO: 13/15 (antibody, listed as Homo sapiens, V domains shown)
VH: EVQLLESGGGLVQPGGSLRLSCAASGFTFSWYSMLWVRQAPGKGLEWVSYISPSGGFTNYADSVKGRFTISRDNSKNTLYLQMNSLRAEDTAVYYCARWDYNSGWYYDHWGQGTLVTVSS
VL: AQDIQMTQSPDTLSLSPGERATLSCRASQSVNSRNLAWYQQKPGQAPRLLIYGASTRATGIPDRFSGSVSGTEFTLTISSLQPDDFATYYCQQYNSYFTFGQGTKLEIK
B3: E11: human anti-HMG1 antibody, recognizes HMG1 A-Box; VL/VH aa SEQ ID NO: 24/26 (antibody, listed as Homo sapiens, V domains shown)
VH: EVQLLESGGGLVQPGGSLRLSCAASGFTFSRYQMNWVRQAPGKGLEWVSSISPSGGHTHYADSVKGRFTISRDNSKNTLYLQMNSLRAEDTAVYYCAKDGRQGKISTVDHWGQGTLVTVSS
VL: AQDIQMTQSPGTLSLSPGERATLSCRASQSVRSNFLAWYQQKPGQAPRLLIYGASRRASGIPDRFSGSGFGADFTLSISRLEPEDFAVYYCQQYGSSPNTFGQGSRVEIK
B4: G20: human anti-HMG1 antibody; VL/VH aa SEQ ID NO: 46/48 (antibody, listed as Homo sapiens, V domains shown)
VH: EVQLLESGGGLVQPGGSLRLSCAASGFTFSWYDMFWVRQAPGKGLEWVSWISPSGGYTKYADSVKGRFTISRDNSKNTLYLQMNSLRAEDTAMYYCARSGLDYYDSSGYLDAFDIWGQGTMVTVSS
VL: AQDIQMTQSPSSVSASVGDRVTITCRASQDVSIWLAWYQQKPGKAPKLLIFGASRLQSGVPSRFSGSRSGADFTLTIDSVQPEDFASYYCQQADSFPLTFGGGTKVEIK
B5: S17: human anti-HMG1 antibody; VL/VH aa SEQ ID NO: 70/72 (antibody, listed as Homo sapiens, V domains shown)
VH: EVQLLESGGGLVQPGGSLRLSCAASGFTFSYYDMHWVRQAPGKGLEWVSRISPSGGYTWYADSVKGRFTISRDNSKNTLYLQMNSLRAEDTAVYYCTRGRYTSGWHEYFDPWGQGTLVTVSS
VL: AQDIQMTQSPSSLSASVGDRVTITCRASQSIGTYLNWYQQKPGTAPKVLIYAASSLQSGVPSRFSGSGSGTDFTLTISSLQPEDFSTYYCQQSYNTPRTFGQGTKLEIK
B6: G9: human anti-HMG1 antibody; VL/VH aa SEQ ID NO: 34/36 (antibody, listed as Homo sapiens, V domains shown)
VH: EVQLLESGGGLVQPGGSLRLSCAASGFTFSSYDMFWVRQAPGKGLEWVSRISPSGGYTYYADSVKGRFTISRDNSKNTLYLQMNSLRAEDTAVYYCARLRYFDSRGYAFDIWGQGTMVTVSS
VL: AQDIQMTQSPGTLSLSPGERATLSCRASQSVRSSYLAWYQQKPGQAPRLLIYGASTRATGIPDRFSGSGSGTDFTLTISRLEPEDFAVYYCQQYGTSRWTFGQGTKVEIK
B7: S10: human anti-HMG1 antibody; VL/VH aa SEQ ID NO: 58/60 (antibody, listed as Homo sapiens, V domains shown)
VH: EVQLLESGGGLVQPGGSLRLSCAASGFTFSWYDMWWVRQAPGKGLEWVSWIVPSGGITAYADSVKGRFTISRDNSKNTLYLQMNSLRAEDTATYYCARGNYGPSPFDYWGQGTLVTVSS
VL: AQDIQMTQSPGTLSLSPGERATLSCRATQSVRKNFLAWYQQKPGQAPRLLIYDASSRATGIPDRFSGSGSGTDFTLTISRLEPEDFAVYYCQQYGNSPIIFGQGTRLEIK
B8: S12: human anti-HMG1 antibody; VL/VH aa SEQ ID NO: 62/64 (antibody, listed as Homo sapiens, V domains shown)
VH: EVQLLESGGGLVQPGGSLRLSCAASGFTFSKYIMHWVRQAPGKGLEWVSGIVPSGGLTEYADSVKGRFTISRDNSKNTLYLQMNSLRAEDTATYYCAKEIFGQFDYWGQGTLVTVSS
VL: AQSALTQPPSVSAAPRQRVTISCSGSTSNIGNNAVTWYQYFPGKAPKLLIYSDNQRPSGVPDRFSGSKSGTSASLAITGLQAEDEADYYCQSYDRGLSVVFGGGTKLTVL

One data set has as its system mouse CLP model of sepsis. The data set can be described thus: Cecal ligation and puncture (CLP) model of sepsis. Type of data set: in vivo. As to conditions: percent protection, isotype control subtracted. Here is the method: Anti-HMGB1 in Sepsis: To establish live intra-abdominal infection and sepsis, Balb/C mice (9-11 per group) were subjected to the CLP procedure as described previously (Fink and Heard, 1990, J Surg Res 49:186-196; Wichmann et al., 1996, J Surg Res 65, 109-114). After anesthesia with an intramuscular injection of ketamine (75 mg/kg, Fort Dodge Laboratories, Fort Dodge, Iowa) and xylazine (20 mg/kg, Bochringer Ingelheim), a 15-mm midline incision was made to expose the cecum. After ligation 5.0 mm from the tip, the cecal stump was punctured once with a 22-gauge needle, and small amount of stool (1-mm length) was extruded. The cecum was placed back into its normal intra-abdominal position, and the wound was closed with two layers of running suture. All animals received saline-solution (0.9% s.c., 20 ml/kg of body weight) resuscitation, and a single dose of antibiotic (0.5 mg of imipenem per mouse in 200 μl of sterile saline injected s.c.) (Primaxin, Merck) 30 min after surgery.
Anti-HMG1 antibodies or isotype control antibodies (50 μg/mouse in a 200 μl volume), were administered intraperitoneally at 24 and 48 hours, post surgery. In certain follow up experiments anti-HMG1 antibodies or isotype control antibodies (8 mg/kg) were administered intraperitoneally at 24 hours, post surgery (FIG. 11C-D). These experiments were blinded—the surgeons randomized the cages, and the encoded antibodies were dosed by another investigator. The survival of the mice was monitored twice daily for a total of 14 days. The survival curves for several representative experiments where the antibodies were delivered at 50 μg/mouse at times 24 and 48 are shown in FIGS. 11A and 11B. The survival curve generated by combining several representative experiments where the antibodies were delivered at 8 mg/kg 24 hours post surgery is shown in FIG. 11C. Several additional antibodies and the oligoclonal antibody pool were tested at 8 mg/kg administered 24 hours post surgery (FIG. 11D).
On to B1, for which the “in vivo CLP” value was 60%.

With B2, the “in vivo CLP” value is recorded as 60-75%.

Consider B3, for which the “in vivo CLP” value stood at 35%.

A further data set addresses T1, recombinant HMG1. Briefly: HMG1 binding affinity via BIAcore analysis.
Conditions: not given
How it is done: HMG1 Binding Affinity via BIAcore Analysis: All experiments were performed on a BIAcore 3000 instrument (BIAcore, Inc., Piscataway, N.J.). Briefly, each mAb was immobilized to a CM5 sensor chip using a standard amino coupling chemistry. Separately a reference (control) flow cell was also prepared. Two-fold, serial dilutions of HMG1 in instrument buffer were sequentially injected at a slow flow rate over the individual mAb and reference flow-cell surfaces. Following the binding and dissociation of HMG1, the mAbs surfaces were regenerated with a brief pulse of 1M NaCl-50 mM NaOH. At the end of each experiment, the binding curves were evaluated using a steady-state model available through the BIA evaluation software supplied by BIAcore, Inc. (Piscataway, N.J.).
With B1, the Kd came to 101 nM.

B4: the Kd was determined as 114 nM.

On to B5, for which the dissociation constant (Kd) was 331 nM.

For another data set, the system named is native activated HMG1 stimulated IL-6 release from human PBMCs. The data set can be described thus: Inhibition of cytokine release from PBMCs, native activated HMG1. In kind it is cell-based.
Conditions: not given
Here is the method:
Inhibition of Cytokine Release: Human peripheral blood mononuclear cells (PBMCs) were isolated from the peripheral blood of healthy volunteers by a density gradient centrifugation. Freshly drawn heparinized whole blood was mixed with two volume of PBS. The diluted blood was gently layered on the surface of Histopaque-1077 (Sigma-Aldrich) and centrifuged at 400×g, at RT for 30 minute. PBMCs were collected from the interface between the plasma and the density gradient solution. After washing in PBS 3×, the purified PBMCs were resuspended in RPMI-1640 medium (GIBCO BRL) containing 100 U/ml penicillin, 100 μg/ml streptomycin and […] β-mercaptoethanol. 1×10^5 of cells was added in each well of 96-well cell culture plates.
The PBMCs were incubated for two hours at 37° C. with 5% CO2. recombinant HMG1, at 4 μg/ml, or native activated HMG1 from 2.4×10^5 LPS stimulated THP-1 cells, and different concentrations of human anti-HMGB-1 monoclonal antibodies, a RAGE-FC fusion protein or an HMG1 A-box-Fc fusion protein were added into each well. The culture media was supplemented with 8 U/ml (1 μg/ml) Polymyxin B sulphate (Sigma-Aldrich) to inhibit potential endotoxin. PBMCs from the same donor without stimulation with HMG1 were used as controls. The cell-free culture media were harvested after 14 hours and stored at −20° C.
The culture media were analyzed for inflammatory cytokines using Beadlyte human multi-cytokine flex kit from Upstate by Luminex 100 (Luminex Corp.). Proinflammatory cytokines TNF-α, IL-6, IL-1β and IL-12 (p40) were measured for cells stimulated with recombinant HMG1. In addition, TNF-α, IL-6, IL-1β and IL-8 were measured for cells stimulated with native activated HMG1.
Cytokine release data is presented as mean of triplicates±standard deviations. IC50 for anti-HMGB1 monoclonal antibody is defined as the concentration of antibody required yielding one-half maximal inhibition of the cytokine release from PBMCs stimulated by HMGB1. It was calculated by PRISM program.
On to B2, for which the “block of IL-6 release induced by native activated HMG1” value (shortened to “block of IL-6 release induced”) is listed as “able to block IL-6 released induced by native activated HMG1”.

For the molecule B6, the “block of IL-6 release induced” value is “less effective”.

In the case of B5, the “block of IL-6 release induced” value is on record as “able to block IL-6 released induced by native activated HMG1”.

Consider B3, for which the “block of IL-6 release induced” value is “able to block IL-6 released induced by native activated HMG1”.

Tested on in the next data set: not listed separately
The data set can be described thus: Differential scanning calorimetry. Type of data set: physicochemical. The settings on record: in °C (unit assumed). Also on record: unit: °C. Here is the method: Differential Scanning Calorimetry: Thermal melting temperatures (Tm) were measured with a VP-DSC (MicroCal, LLC) using a scan rate of 1.0° C./min and a temperature range of 25-120° C. A filter period of 8 seconds was used along with a 5 minute pre-scan thermostating. Samples were prepared by dialysis into 25 mM Histidine-HCl, pH 6 using Pierce dialysis cups (3.5 kD). Average Mab concentrations were 50 μg/mL as determined by A280. Melting temperatures were determined following manufacturer procedures using Origin software supplied with the system. Briefly, multiple baselines were run with buffer in both the sample and reference cell to establish thermal equilibrium. After the baseline was subtracted from the sample thermogram, the data were concentration normalized and fitted using the deconvolution function.
In the case of B1, the Tm worked out at 67.1.

For the molecule B4, the Tm came to 71.2.

Take B2: the Tm came out at 71.4.

For B7, the Tm worked out at 75.3.

For the molecule B6, the Tm worked out at 77.9.

B8: the Tm is on record as 66.9.

For B5, the Tm is listed as 90.0.

Take B3: the Tm is recorded as 66.3.

These data come from patent US20080311122A1, “Antagonists of Hmgb1 and/or Rage and Methods of Use Thereof” (Medimmune, LLC, priority 2005, published 2008).
